The record followed here is publication doi:10.1101/2021.02.22.432310, “Tetrameric UvrD helicase is located at the E. coli replisome due to frequent replication blocks” (bioRxiv, 2021).

This assay concerns the target T1, Biotinylated UvrD (E. coli, UniProt P03018 1-720, biotin).
T1 construct: UvrD helicase (DNA helicase II), E. coli; also called E. coli UvrD
T1 sequence (looked up): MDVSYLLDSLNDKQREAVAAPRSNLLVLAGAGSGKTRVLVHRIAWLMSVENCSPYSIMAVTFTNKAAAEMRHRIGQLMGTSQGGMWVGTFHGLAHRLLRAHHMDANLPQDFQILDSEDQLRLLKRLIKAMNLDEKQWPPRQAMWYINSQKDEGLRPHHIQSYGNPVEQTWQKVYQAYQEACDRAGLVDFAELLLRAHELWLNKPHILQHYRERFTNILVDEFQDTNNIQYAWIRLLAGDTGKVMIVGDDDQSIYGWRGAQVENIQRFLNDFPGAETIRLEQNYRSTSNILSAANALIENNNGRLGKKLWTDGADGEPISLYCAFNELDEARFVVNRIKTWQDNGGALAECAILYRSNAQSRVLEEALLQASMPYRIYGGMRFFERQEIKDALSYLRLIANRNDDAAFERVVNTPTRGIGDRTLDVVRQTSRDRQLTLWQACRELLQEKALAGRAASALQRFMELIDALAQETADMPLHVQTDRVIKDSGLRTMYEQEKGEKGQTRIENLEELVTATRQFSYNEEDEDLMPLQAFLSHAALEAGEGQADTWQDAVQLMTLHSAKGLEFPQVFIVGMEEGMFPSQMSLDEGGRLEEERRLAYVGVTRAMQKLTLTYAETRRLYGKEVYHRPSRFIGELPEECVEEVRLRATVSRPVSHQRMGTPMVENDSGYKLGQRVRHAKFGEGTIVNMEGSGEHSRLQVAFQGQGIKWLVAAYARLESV
In words: SPR; BIAcore T200, 25°C; biotinylated UvrD or Rep immobilised on streptavidin-coated SA chips; Tau or UvrB passed over, ca. 200-4000 nM, 20 µl/min; 10 mM HEPES pH 7.4, 3 mM EDTA, 150 mM NaCl, 10 mM MgCl2, 0.05% Tween 20; single sites binding model. The following applies: both partners purified.

B1: UvrB (natural protein, UniProt P0A8F8 1-673, looked up)
chain: MSKPFKLNSAFKPSGDQPEAIRRLEEGLEDGLAHQTLLGVTGSGKTFTIANVIADLQRPTMVLAPNKTLAAQLYGEMKEFFPENAVEYFVSYYDYYQPEAYVPSSDTFIEKDASVNEHIEQMRLSATKAMLERRDVVVVASVSAIYGLGDPDLYLKMMLHLTVGMIIDQRAILRRLAELQYARNDQAFQRGTFRVRGEVIDIFPAESDDIALRVELFDEEVERLSLFDPLTGQIVSTIPRFTIYPKTHYVTPRERIVQAMEEIKEELAARRKVLLENNKLLEEQRLTQRTQFDLEMMNELGYCSGIENYSRFLSGRGPGEPPPTLFDYLPADGLLVVDESHVTIPQIGGMYRGDRARKETLVEYGFRLPSALDNRPLKFEEFEALAPQTIYVSATPGNYELEKSGGDVVDQVVRPTGLLDPIIEVRPVATQVDDLLSEIRQRAAINERVLVTTLTKRMAEDLTEYLEEHGERVRYLHSDIDTVERMEIIRDLRLGEFDVLVGINLLREGLDMPEVSLVAILDADKEGFLRSERSLIQTIGRAARNVNGKAILYGDKITPSMAKAIGETERRREKQQKYNEEHGITPQGLNKKVVDILALGQNIAKTKAKGRGKSRPIVEPDNVPMDMSPKALQQKIHELEGLMMQHAQNLEFEEAAQIRDQLHQLRELFIAAS
For the molecule B1, the Kd (commonly the free concentration of one partner at which half of the binding sites on the other are occupied at equilibrium, for simple one-to-one binding) amounted to 231 nM.
